Assay results from the RNAGym collection of RNA variant scans (doi:10.7554/elife.90254).

B1: LINE1-full (parent)
chain: UACGUAGGUGGUUUUCCCCUGAUAGUGCUAAGGGGGCCUGGAAGUUUGGACUGGGCAGAGCUCAACACAGCGUGGCAAAGUGGCUGUGGCUAGACUGCCUCUCUGGAUUCCUCGUCACUCAGCAGGGCAUCUCUGAGAGAAAUGCC

Variants of: B1
Assay: self-cleavage, relative activity (ratio to wild type); higher = more cleavage; in vitro, sequencing; the parent is a self-cleaving ribozyme

Variant | self-cleavage
U14C A78G | 1.22
U14C A78C | 1.74
U13C U46A | 1.13
U13C U46G | 1.31
U14C G86U | 0.08
U14A U29A | 1.51
U14A U29C | 1.28
U13G C76U | 1.47
U14C C76U | 1.23
U13G A94G | 0.37
U14C U100C | 1.55
U14C U100G | 1.38
U14C U100A | 0.9
U14C G54A | 0.71
U13C G49A | 0.88
U15A A69U | 0.05
U13C U73A | 1.39
U13C U73C | 1.17
U13C U73G | 0.91
U14C G105A | 1.38
U14C G105U | 1.11
U13G A92G | 0
U13C U96G | 0.06
U13C U91C | 0.99

Variant | self-cleavage
U13C U91A | 0.85
U15A A57G | 0.68
U14A U45A | 0.23
U14A U45G | 0.77
U14A U45C | 1.09
U15A G35U | 1.16
U14A A24G | 0.96
U14A A24U | 0.77
U13C U112C | 1.35
U13C U112G | 1.13
U14G C38G | 1.12
U15A A50U | 1.43
U15A A50G | 0.67
U13G C113U | 1.11
U15A G21A | 1.15
U14C G58U | 0.03
U14C G58C | 0.08
U14C G58A | 0.06
U14A G72U | 1.32
U13C U87G | 0.21
U14G C18A | 1.09
U14C A57U | 0.06
U13C C116U | 0.7
U13C C116A | 1.15

Variant | self-cleavage
U13C G97A | 0.08
U13C A140G | 1.23
U14C U91G | 0.24
U14C U91C | 0.79
U14C G97A | 0.09
U14C G88A | 0.09
U14A C101A | 1.42
U14G C118U | 1.84
U14C A42G | 1.15
U14A C99U | 0.85
U14C C145U | 1.41
U14C C145A | 1.28
U14C C145G | 0.63
U13C C131A | 1.28
U14A U119A | 1.02
U14C U87A | 0.15
U14C U87G | 0.31
U14C U87C | 0.26
U14C U73A | 1.31
U14C U73C | 1.62
U13G A121G | 1.1
U15A C90A | 0.02
U14A A78G | 0.34
U14C A64U | 0.46

Variant | self-cleavage
U14A A136G | 0.97
U14A A136C | 1.78
U14A C103U | 0.99
U14G A77G | 0.57
U14A A43G | 0.43
U14C U23C | 1.4
U14C U23A | 1.62
U14C U23G | 0.93
U14C C51U | 0.71
U14C C51G | 1.84
U14C G48A | 1.12
U13C G55C | 0.25
U13G A77U | 1.31
U14A U87C | 0.12
U14A A140U | 1.43
U14A A140G | 0.91
U13C C98U | 0.35
U13C C98G | 0.15
U14G U102G | 0.66
U15A G33A | 0.98
U14C U81A | 1.34
U13C U52G | 1.3
U13C G25U | 1.52
U14C G60U | 0.04

Variant | self-cleavage
U15A A129G | 0.65
U13C A136U | 1.18
U14C C16A | 0.84
U14A U52C | 0.8
U15A A94U | 0.25
U15A A94G | 0.19
U13C C66U | 0.14
U14A U130C | 0.83
U13G U85A | 0.06
U13C G122U | 1.02
U13C G122A | 1.5
U13C C51U | 0.97
U15A A121G | 1.15
U14G A136G | 1.16
U14A U73A | 1.39
U15A A142G | 1.13
U14G A79G | 0.42
U13C G21A | 0.94
U13C G21U | 1
U14C U119A | 1.25
U13C G40U | 1.87
U13C G40A | 0.91
U14C C113A | 1.19
U14C C113U | 0.82

Variant | self-cleavage
U14C A50U | 1.03
U14C G74A | 0.96
U14A A67U | 0.1
U13C A142U | 1.09
U13C G41A | 1.81
U14C U96A | 0.13
U14C C128U | 0.2
U15A C101G | 0.84
U13C C110U | 1.43
U13C G33U | 1.64
U13C U119C | 1.54
U13G U115G | 1.43
U14C A31G | 1.24
U14C A31U | 1.11
U14G A107G | 1.28
U13C U45G | 1.46
U14C U52A | 0.85
U14A A31G | 0.89
U14A A31U | 0.84
U14C C90U | 0.01
U13C C84U | 0.11
U14C C38U | 1.09
U13G A79U | 0.44
U13G A69U | 0.39

Variant | self-cleavage
U14A G114A | 0.83
U13C G80A | 1.48
U14A A30G | 1.27
U15A A24G | 0.49
U15A A24U | 1.12
U13G | 0.93
U14A U134A | 0.81
U14C C110U | 1.39
U14C C110A | 1.33
U13C U102C | 1.4
U13C U102A | 1.73
U13C G75A | 1.16
U14C C146U | 1.32
U15A G32A | 0.66
U14C U46C | 1.3
U14C U46A | 1.4
U14C G55C | 0.09
U14C C61G | 0.1
U14C A67G | 0.61
U15A A31U | 1.05
U15A A31G | 0.55
U15A A79G | 0
U14C U112C | 1.19
